# B1: MceG-GFP (MceG, MSMEG_1366, chromosomally tagged with GFP at its C-terminus) (enzyme, UniProt A0QS64 1-360, looked up)
# chain: MGVQIDVTGLSKSFGSSKIWEDVTMSIPAGEVSVLLGPSGTGKSVFLKSLIGLLRPERGSIVIDGTDILQCSAKELYEIRTLFGVLFQDGALFGSMNIYDNTAFPLREHTKKSESEIRKIVMEKLDLVGMPNDGHKFPGEISGGMRKRAGLARALVLDPEIILCDEPDSGLDPVRTAYLSQLLIDINAQIDATVLIVTHNINIARTVPDNMGMLFRKQLVMFGPREVLLTSEEPVVKQFLNGRRIGPIGMSEEKDEATAAAEQALVDAGQHDGGVEEIEGVPPQLQATPGMPERKAVARRKARVREILHTLPPAAQAAILEELDRDQPQLSAPTTQTAATAPVENYDDSPTGVIEVPKQA
# notes: MceG, ATPase of the MCE ABC transporters, Mycobacterium smegmatis, locus MSMEG_1366; endogenous protein; printed residue numbers run to 360 (residues 1, 256-280 and 326-360 not modelled); also called GFP-tagged MceG; MceG ATPase; not shown: eGFP, C-terminal, kept
# Molecular target: the molecule itself
# Experiment: cryo-EM structure
protein,measurement,value
B1,stoichiometry N,2
